Laboratory results from publication PMC6284025.

How the values were obtained:
[1] = biological target: FcγRII (CD32) on human CD4+ T cells (human (endogenous in CD4+ T cells of blood donors)) (UniProt P12318); assay: flow cytometry on cells; activated purified CD4+ T cells incubated with aIgG (100 μg/ml) for 2 h at 37°C, washed three times, stained with biotinylated anti-human IgG Fc and streptavidin PerCP; percent of aIgG+CD4+ T cells
[2] = biological target: FcγRII (CD32) on human CD4+ T cells (human (endogenous in CD4+ T cells of blood donors)) (UniProt P12318)

Chain of UniProt P12318 (P12318 34-317): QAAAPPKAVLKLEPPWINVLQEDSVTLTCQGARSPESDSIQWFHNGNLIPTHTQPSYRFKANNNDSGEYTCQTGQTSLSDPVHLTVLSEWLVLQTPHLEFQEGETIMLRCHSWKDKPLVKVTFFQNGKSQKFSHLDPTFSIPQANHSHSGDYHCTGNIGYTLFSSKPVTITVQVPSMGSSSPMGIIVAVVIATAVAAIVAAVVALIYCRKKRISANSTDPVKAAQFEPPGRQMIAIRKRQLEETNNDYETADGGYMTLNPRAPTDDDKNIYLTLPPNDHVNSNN

Work on “Human IgG (heat-aggregated IgG, used as a model of immune complexes; or immobilised on plastic) (ligand)” yielded a percent of aIgG+CD4+ T cells [1] of 14.1%, an IFN-γ in the supernatant (ELISA) after cIgG, then suboptimal PHA for 5 d [2] of 4950 pg/mL and an IL-5 in the supernatant (ELISA) after cIgG, then suboptimal PHA for 5 d [2] of 77.9 pg/mL. It also gave an IL-10 in the supernatant (ELISA) after cIgG, then suboptimal PHA for 5 d [2] of 143 pg/mL and a TNF-α in the supernatant (ELISA) after cIgG, then suboptimal PHA for 5 d [2] of 59.1 pg/mL.
